Experimental data reported in article PMC8391104, “Molecular mechanism of Mad1 kinetochore targeting by phosphorylated Bub1” (EMBO Reports, 2021).
Where no end group is shown, it is not given here. [ ]: non-standard residue; d: D form. pT = C[C@@H](OP(=O)(O)O)[C@H](N)C(=O)O; pS = N[C@@H](COP(=O)(O)O)C(=O)O

B3: Mad1 C-terminal domain (Mad1^CTD) homodimer, residues 597-718 (domain or fragment, human, UniProt Q9Y6D9 597-718, looked up)
chain: SSKEVAELKKQVESAELKNQRLKEVFQTKIQEFRKACYTLTGYQIDITTENQYRLTSLYAEHPGDCLIFKATSPSGSKMQLLETEFSHTVGELIEVHLRRQDSIPAFLSSLTLELFSRQTVA
notes: the C-terminal residue is Ala718; For NMR the same construct was made 15N-labelled or 2H,13C,15N-labelled in M9 minimal medium; also called wild-type Mad1^CTD; WT Mad1^CTD; source: E. coli Rosetta 2 (DE3), purified (Strep-Tactin, TEV cleavage, Resource Q, Superdex 75); not shown: double Strep, N-terminal, cleaved; His6, N-terminal, cleaved

Tests used:
[1] = target: T1, Mad1^CTD QRI triple mutant (Q627A, R650A, I643A) (human, UniProt Q9Y6D9 597-718, Q627A | I643A | R650A); experiment: ITC; Bub1^CD1 peptide (0.3-1.5 mM) titrated into Mad1 (30-100 µM) in the cell; 20°C; 20 mM HEPES pH 7.5, 100 mM NaCl, 1 mM TCEP; single-site model; stoichiometry counted on dimeric Mad1^CTD; details: both partners purified
T1 construct: also called triple alanine mutant; source: E. coli Rosetta 2 (DE3), purified (Strep-Tactin, TEV cleavage, Resource Q, Superdex 75); not shown: double Strep, N-terminal, cleaved; His6, N-terminal, cleaved
T1 sequence (looked up): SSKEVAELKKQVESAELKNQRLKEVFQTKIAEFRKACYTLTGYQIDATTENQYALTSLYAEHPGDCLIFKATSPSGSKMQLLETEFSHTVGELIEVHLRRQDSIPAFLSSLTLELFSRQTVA

Mad1^CTD R630A = target: T2, Mad1^CTD R630A (human, UniProt Q9Y6D9 597-718, R630A); experiment: as above; details: both partners purified
T2 construct: also called Mad1 R630A mutant; source: E. coli Rosetta 2 (DE3), purified (Strep-Tactin, TEV cleavage, Resource Q, Superdex 75); not shown: double Strep, N-terminal, cleaved; His6, N-terminal, cleaved
T2 sequence (looked up): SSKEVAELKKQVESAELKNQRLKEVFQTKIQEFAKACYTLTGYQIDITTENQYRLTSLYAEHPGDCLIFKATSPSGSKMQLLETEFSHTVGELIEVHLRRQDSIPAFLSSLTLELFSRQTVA

Mad1^CTD R617A = target: T3, Mad1^CTD R617A (human, UniProt Q9Y6D9 597-718, R617A); experiment: as above; details: both partners purified
T3 construct: also called R617A mutant of Mad1; source: E. coli Rosetta 2 (DE3), purified (Strep-Tactin, TEV cleavage, Resource Q, Superdex 75); not shown: double Strep, N-terminal, cleaved; His6, N-terminal, cleaved
T3 sequence (looked up): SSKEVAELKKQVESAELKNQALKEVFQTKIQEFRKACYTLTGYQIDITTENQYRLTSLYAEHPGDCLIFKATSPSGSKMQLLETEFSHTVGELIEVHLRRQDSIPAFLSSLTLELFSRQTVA

Mad1^CTD Q627A = target: T4, Mad1^CTD Q627A (human, UniProt Q9Y6D9 597-718, Q627A); experiment: as above; details: both partners purified
T4 construct: also called alanine substitution of Gln627; source: E. coli Rosetta 2 (DE3), purified (Strep-Tactin, TEV cleavage, Resource Q, Superdex 75); not shown: double Strep, N-terminal, cleaved; His6, N-terminal, cleaved
T4 sequence (looked up): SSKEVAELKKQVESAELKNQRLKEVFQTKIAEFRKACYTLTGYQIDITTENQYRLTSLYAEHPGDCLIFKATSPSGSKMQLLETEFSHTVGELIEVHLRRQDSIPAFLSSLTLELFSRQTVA

Mad1^CTD R650A = target: T5, Mad1^CTD R650A (human, UniProt Q9Y6D9 597-718, R650A); experiment: as above; details: both partners purified
T5 construct: also called alanine substitution of Arg650; source: E. coli Rosetta 2 (DE3), purified (Strep-Tactin, TEV cleavage, Resource Q, Superdex 75); not shown: double Strep, N-terminal, cleaved; His6, N-terminal, cleaved
T5 sequence (looked up): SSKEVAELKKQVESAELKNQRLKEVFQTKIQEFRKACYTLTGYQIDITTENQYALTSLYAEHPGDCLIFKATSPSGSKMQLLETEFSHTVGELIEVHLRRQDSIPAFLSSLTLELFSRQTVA

[2] = target: T6, Mad1^CTD QRRI quadruple mutant (Q627A, R630A, I643A, R650A) (human, UniProt Q9Y6D9 597-718, Q627A | R630A | I643A | R650A); experiment: as above; details: both partners purified
T6 construct: source: E. coli Rosetta 2 (DE3), purified (Strep-Tactin, TEV cleavage, Resource Q, Superdex 75); not shown: double Strep, N-terminal, cleaved; His6, N-terminal, cleaved
T6 sequence (looked up): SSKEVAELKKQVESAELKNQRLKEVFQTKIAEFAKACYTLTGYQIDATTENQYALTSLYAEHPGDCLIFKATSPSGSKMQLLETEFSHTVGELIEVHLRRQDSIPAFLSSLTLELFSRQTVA

Mad1^CTD K619A = target: T7, Mad1^CTD K619A (human, UniProt Q9Y6D9 597-718, Substituting Ala for Lys619); experiment: as above; details: both partners purified
T7 construct: also called Ala for Lys619; source: E. coli Rosetta 2 (DE3), purified (Strep-Tactin, TEV cleavage, Resource Q, Superdex 75); not shown: double Strep, N-terminal, cleaved; His6, N-terminal, cleaved
T7 sequence (looked up): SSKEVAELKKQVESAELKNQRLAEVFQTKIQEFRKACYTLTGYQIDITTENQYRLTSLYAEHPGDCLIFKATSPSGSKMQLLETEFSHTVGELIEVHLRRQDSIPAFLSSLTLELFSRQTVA

Mad1^CTD I643A = target: T8, Mad1^CTD I643A (human, UniProt Q9Y6D9 597-718, I643A); experiment: as above; details: both partners purified
T8 construct: also called alanine substitution of Ile643; source: E. coli Rosetta 2 (DE3), purified (Strep-Tactin, TEV cleavage, Resource Q, Superdex 75); not shown: double Strep, N-terminal, cleaved; His6, N-terminal, cleaved
T8 sequence (looked up): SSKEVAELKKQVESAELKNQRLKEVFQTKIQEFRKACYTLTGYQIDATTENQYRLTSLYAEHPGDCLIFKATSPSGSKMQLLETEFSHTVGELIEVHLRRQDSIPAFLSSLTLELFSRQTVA

[3] = target: B3; experiment: AUC; sedimentation equilibrium; 20 µM Mad1^CTD with 20 or 40 µM Bub1^CD1 peptide; 20 mM HEPES pH 7.5, 100 mM NaCl, 1 mM TCEP; 20°C; two-species model; details: both partners purified
[4] = target: the molecule itself; experiment: as above
[5] = target: the molecule itself; experiment: SEC-MALS; 100 µl of purified protein at 0.5-2.0 mg/ml on Superdex 200 Increase 10/300 GL, 0.5 ml/min

B1: doubly phosphorylated Bub1^CD1 peptide (pSer459-pThr461) (peptide)
peptide: KVQP[pS]P[pT]VHTKEALGFIMNMFQAPTS
notes: Bub1 conserved domain 1 (CD1), human, stated as residues 455-479; also called pSer459-pThr461 peptide; source: synthetic peptide (Designer Bioscience UK, 95% purity)
- Kd [1]: 14.5 µM
- Kd (Mad1^CTD R630A): 10 µM
- Kd (Mad1^CTD R617A): 3000 µM
- binding result (Mad1^CTD Q627A): binds
- binding result (Mad1^CTD R650A): binds
- Kd [2]: 25 µM
- Kd (Mad1^CTD K619A): 10 µM
- binding result (Mad1^CTD I643A): binds

B2: phosphorylated Bub1^CD1 peptide with an additional N-terminal tryptophan (peptide)
peptide: WKVQP[pS]P[pT]VHTKEALGFIMNMFQAPTS
notes: additional N-terminal tryptophan, added to confirm the peptide concentration; Bub1 conserved domain 1 (CD1), human, stated as residues 455-479; also called Bub1^CD1 peptide with an N-terminal tryptophan residue; source: synthetic peptide (Designer Bioscience UK, 95% purity)
- stoichiometry N [3]: 1 peptide per Mad1^CTD dimer

Binder: B3
- stoichiometry N [4]: 2

B4: Mad1^CTD L618A (domain or fragment, human, UniProt Q9Y6D9 597-718, looked up)
chain: SSKEVAELKKQVESAELKNQRAKEVFQTKIQEFRKACYTLTGYQIDITTENQYRLTSLYAEHPGDCLIFKATSPSGSKMQLLETEFSHTVGELIEVHLRRQDSIPAFLSSLTLELFSRQTVA
notes: Poorly expressed, aggregated easily, eluted broadly; the authors suspect mis-folding of the dimer; also called L618A mutant; source: E. coli Rosetta 2 (DE3), purified (Strep-Tactin, TEV cleavage, Resource Q, Superdex 75); not shown: double Strep, N-terminal, cleaved; His6, N-terminal, cleaved
- stoichiometry N [5]: 2

B5: Mad1^CTD F629A (domain or fragment, human, UniProt Q9Y6D9 597-718, looked up)
chain: SSKEVAELKKQVESAELKNQRLKEVFQTKIQEARKACYTLTGYQIDITTENQYRLTSLYAEHPGDCLIFKATSPSGSKMQLLETEFSHTVGELIEVHLRRQDSIPAFLSSLTLELFSRQTVA
notes: Poorly expressed, prone to aggregate; the authors suspect a disrupted Mad1 conformation; also called F629A mutant; source: E. coli Rosetta 2 (DE3), purified (Strep-Tactin, TEV cleavage, Resource Q, Superdex 75); not shown: double Strep, N-terminal, cleaved; His6, N-terminal, cleaved
- stoichiometry N [5]: 2
